In publication PMC9441902:

Molecular target: LrsL (quorum quenching lactonase of Labrenzia sp. VG12), recombinant catalytic domain without the N-terminal 47 residues (Labrenzia sp. VG12)
Assay: SEC-MALS; Superdex 200 10/300; 5.5 mg/ml LrsL injected; 20 mM HEPES, pH 7.5, 200 mM NaCl, 1 mM TCEP, 0.01% NaN3

Substance “LrsL (quorum quenching lactonase of Labrenzia sp. VG12), recombinant catalytic domain without the N-terminal 47 residues (enzyme)” has a stoichiometry N of 2.
